Experimental data taken from patent publication US20240239894A1 (AstraZeneca / MedImmune, published 2024).
Numbering of substitutions follows the chain as printed.

T1: human B7-H4 on cells (human, UniProt Q7Z7D3 25-282)
T1 sequence: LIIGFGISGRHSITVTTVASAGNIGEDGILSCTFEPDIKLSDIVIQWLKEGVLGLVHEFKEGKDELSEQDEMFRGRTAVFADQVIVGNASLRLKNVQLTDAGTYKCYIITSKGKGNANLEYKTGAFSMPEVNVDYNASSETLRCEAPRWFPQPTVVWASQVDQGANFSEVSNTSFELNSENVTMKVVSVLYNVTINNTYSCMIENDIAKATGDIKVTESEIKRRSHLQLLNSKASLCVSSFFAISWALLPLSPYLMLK

T2: Human B7-H4 ECD-Flag-His10 (monomeric) (human, UniProt Q7Z7D3 25-259)
T2 construct: Minimally biotinylated for KinExA; also called hB7H4-ECD-Flag-His10; B7-H4-FLAG
T2 sequence: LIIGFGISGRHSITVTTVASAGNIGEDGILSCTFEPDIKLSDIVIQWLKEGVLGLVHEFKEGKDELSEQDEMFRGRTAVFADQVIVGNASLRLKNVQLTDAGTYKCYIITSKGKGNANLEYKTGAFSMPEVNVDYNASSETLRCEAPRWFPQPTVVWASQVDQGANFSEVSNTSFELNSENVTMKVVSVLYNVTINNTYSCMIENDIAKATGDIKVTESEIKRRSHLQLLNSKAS

T3: Murine B7-H4 ECD-Flag-His10 (monomeric) (mouse, UniProt Q7TSP5 25-257)
T3 construct: extracellular domain; also called FlagHis10 murine B7-H4
T3 sequence (looked up): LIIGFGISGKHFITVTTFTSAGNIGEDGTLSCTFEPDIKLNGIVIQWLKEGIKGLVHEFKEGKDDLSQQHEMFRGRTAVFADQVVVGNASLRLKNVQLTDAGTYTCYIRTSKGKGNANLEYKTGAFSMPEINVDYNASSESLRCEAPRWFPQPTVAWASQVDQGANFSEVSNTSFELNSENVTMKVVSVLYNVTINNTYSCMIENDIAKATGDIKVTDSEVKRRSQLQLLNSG

T4: Human B7-H4-Fc (Human B7H4 ECD, Fc_6His) (human)
T4 construct: also called FcHis6 tagged human B7-H4
T4 sequence (Q7Z7D3 whole entry, looked up): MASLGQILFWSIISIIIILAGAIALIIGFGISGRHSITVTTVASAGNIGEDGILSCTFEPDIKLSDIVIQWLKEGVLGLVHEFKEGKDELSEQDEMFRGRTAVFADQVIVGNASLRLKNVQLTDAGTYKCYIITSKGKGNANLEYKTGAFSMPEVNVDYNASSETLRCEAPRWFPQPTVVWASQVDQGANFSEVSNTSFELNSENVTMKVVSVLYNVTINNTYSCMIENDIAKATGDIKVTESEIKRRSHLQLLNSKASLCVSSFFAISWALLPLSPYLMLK

B1: ZY0EOB-F05 human IgG1-TM (antibody, V domains shown)
VH: QVQLQESGPGLVKPSQTLSLTCTVSDGSISSGGYYWSWIRQHPGKGLEWIGNIYYSGSTYYNPSLKSRVTISVDTSKNQFSLKLNSVTAADTAVYYCATEKALATVTPSGYENYYTVDVWGQGTTVTVSS
VL: DIQLTQSPSFLSASVGDRVTITCWASQGISSYLAWYQQKPGKAPKLLIYAASTLQSGVPSRFSGSGSGTEFTLTISSLQPEDFATYYCQHLNSYPLTFGGGTKVEIK
B2: ZY0EP0-C07 human IgG1-TM (antibody, V domains shown)
VH: QVQLVESGGVLVKPGGSLRLSCAASGFTLSDYYMSWIRQAPGMGLEWVSYISSSGSTIYYTDSVKGRFTISRDSAKNSLYLQMNSLRAEDTAVYYCARDGVGFDYWGQGTLVTVSS
VL: EIVLTQSPGTLSLFPGERATLSCRASQSVSSSYLAWYQQKPGQSPRLLIYAASSRATGIPDRFSGSGSGTDFTLTISRLEPEDFAVYYCQQYGSSPLYTFGQGTKLEIK
notes: also called ZY0EPO-C07
B3: ZY0EQD-E02 human IgG1-TM (antibody, V domains shown)
VH: QVQLQQWGAGLLKPSETLSLTCAVYGGSFSGYYWNWIRQPPGKGLEWIGEINHSGSTSYNPSLKSRVTISVDTSKNQFSLKLSSVTAADTAVYYCARVLYNWNVDSWGQGTLVTVSS
VL: DIQMTQSPSSLSASVGDRVTITCRASQDIRNDVGWYQQKPGKAPKRLIYAASRLQSGVPSRFSGSGSGTEFTLTISSLQPEDFATYYCLQHNSYPRTFGQGTKVEIK
B4: ZY0EPQ-E02 human IgG1-TM (antibody, V domains shown)
VH: B3 VH with S58N, S70L, V98N, V104L
VL: B3 VL with D28G, V33L, K42R, A50V, R53S

What follows are binders tested against T1, human B7-H4 on cells (assay: cell-based or functional assay).
B1 was tested, and the “ZAP % Viability, OVCAR4” value was 67% and the “ZAP % Viability, SKBR3” value was 84%.
In the case of B2, the “ZAP % Viability, OVCAR4” value is reported as 57%, the “ZAP % Viability, SKBR3” value is reported as 72% and the “ZAP IC50 (M), OVCAR4” value is reported as 1e-08 M. The “ZAP IC50 (M), SKBR3” value was 4e-09 M.
With B3 the “ZAP % Viability, OVCAR4” value was 40%, the “ZAP % Viability, SKBR3” value was 48% and the “ZAP IC50 (M), OVCAR4” value was 2e-08 M. For the same binder, the “ZAP IC50 (M), SKBR3” value was 1e-08 M.
With B4 the “ZAP % Viability, OVCAR4” value was 46%, the “ZAP % Viability, SKBR3” value was 65% and the “ZAP IC50 (M), OVCAR4” value was 2e-08 M. For the same binder, the “ZAP IC50 (M), SKBR3” value was 4e-09 M.

These binders were tested against T5, Cyno B7-H4-Fc (Cyno B7H4 ECD, FcTM_6His) (cynomolgus monkey) (assay: HTRF binding, human IgG1-TM).
T5 construct: extracellular domain; also called cynomolgus B7-H4-Fc
Binder B1 has an EC50 of 0.15 nM and a Max of 1480.
For B2, the EC50 was 0.39 nM and the Max was 890.
Work on B3 yielded an EC50 of 0.28 nM and a Max of 1100.
With B4 the EC50 was 0.35 nM and the Max was 934.

What follows are binders tested against T2, Human B7-H4 ECD-Flag-His10 (monomeric) (assay: Octet BLI, hIgG1-TM on Protein G (n = 4-7)).
B1 showed a Kd of 13.4 nM, a koff of 0.000355 s⁻¹ and a kon of 26500 M⁻¹ s⁻¹.
For B2, the Kd was 9.4 nM, the koff was 0.000397 s⁻¹ and the kon was 41600 M⁻¹ s⁻¹.
Work on B3 yielded a Kd of 14.4 nM, a koff of 0.00278 s⁻¹ and a kon of 193000 M⁻¹ s⁻¹.
Binder B4 has a Kd of 25.7 nM, a koff of 0.00182 s⁻¹ and a kon of 70900 M⁻¹ s⁻¹.

These binders were tested against T3, Murine B7-H4 ECD-Flag-His10 (monomeric) (assay: Octet BLI, hIgG1-TM on Protein G (n = 4-7)).
In the case of B1, the Kd is reported as 25 nM, the koff is reported as 0.000476 s⁻¹ and the kon is reported as 18700 M⁻¹ s⁻¹.
B2 showed a Kd of 11 nM, a koff of 0.000524 s⁻¹ and a kon of 43000 M⁻¹ s⁻¹.
Work on B3 yielded a Kd of 621 nM, a koff of 0.126 s⁻¹ and a kon of 203000 M⁻¹ s⁻¹.
Binder B4 has a Kd of 396 nM, a koff of 0.0304 s⁻¹ and a kon of 76700 M⁻¹ s⁻¹.

The binders below were run against T6, Human B7H4 ECD (SV), splice variant, 10His_FLAG (human) (assay: Octet BLI, hIgG1-TM on Protein G (n = 4-7)).
T6 construct: also called B7-H4-SV
With B1 the Kd was 174 nM, the koff was 0.000584 s⁻¹ and the kon was 3350 M⁻¹ s⁻¹.
Binder B3 has a Kd of 801 nM, a koff of 0.00269 s⁻¹ and a kon of 3360 M⁻¹ s⁻¹.
B4 showed a Kd of 1660 nM, a koff of 0.00229 s⁻¹ and a kon of 1380 M⁻¹ s⁻¹.

The binders below were run against T3, Murine B7-H4 ECD-Flag-His10 (monomeric) (assay: Octet; summary table, repeats Table 9 (hIgG1-TM)).
B1 was tested, and the Kd was 25 nM.
For B2, the Kd was 11 nM.
B3 was tested, and the Kd was 621 nM.
With B4 the Kd was 396 nM.

Each binder was assayed against T6, Human B7H4 ECD (SV), splice variant, … (assay: Octet; summary table, repeats Table 9 (hIgG1-TM)).
Work on B1 yielded a Kd of 174 nM.
For B3, the Kd was 801 nM.
B4 showed a Kd of 1660 nM.

The binders below were run against T2, Human B7-H4 ECD-Flag-His10 (monomeric) (assay: Octet BLI; end of the range tied to the member by Table 9).
B2 showed a Kd of 10 to 25 nM.
With B4 the Kd was 10 to 25 nM.

The binders below were run against T3, Murine B7-H4 ECD-Flag-His10 (monomeric) in the same assay as above.
Binder B2 has a Kd of 10 to 600 nM.
Binder B3 has a Kd of 10 to 600 nM.

These binders were tested against T6, Human B7H4 ECD (SV), splice variant, … in the same assay as above.
For B1, the Kd was 200 to 1600 nM.
B4 gave a Kd of 200 to 1600 nM.

What follows are binders tested against T2, Human B7-H4 ECD-Flag-His10 (monomeric) (assay: Octet; summary table, rounded from Table 9 (hIgG1-TM)).
B1 showed a Kd of 13 nM.
B2 was tested, and the Kd was 9 nM.
For B3, the Kd was 14 nM.
With B4 the Kd was 26 nM.

The binders below were run against T4, Human B7-H4-Fc (Human B7H4 ECD, Fc_6His) (assay: ELISA, absorbance 450 nm; x axis printed as antigen concentration (µg/ml)).
In the case of B3, the “EC50 (read off the curve)” value is reported as roughly 0.09 µg/mL.

These binders were tested against T2, Human B7-H4 ECD-Flag-His10 (monomeric) in the same assay as above.
In the case of B3, the “EC50 (read off the curve)” value is reported as roughly 0.08 µg/mL.

Molecular target: T2, Human B7-H4 ECD-Flag-His10 (monomeric)
Experiment: as above
Remark: another data set of the same source
In the case of B4, the “EC50 (read off the curve)” value is reported as roughly 0.3 µg/mL.
